T1: human MIC-1 receptor (hGFRAL, GDNF family receptor alpha like), full length (human, UniProt Q6UXV0 19-394)
T1 sequence (looked up): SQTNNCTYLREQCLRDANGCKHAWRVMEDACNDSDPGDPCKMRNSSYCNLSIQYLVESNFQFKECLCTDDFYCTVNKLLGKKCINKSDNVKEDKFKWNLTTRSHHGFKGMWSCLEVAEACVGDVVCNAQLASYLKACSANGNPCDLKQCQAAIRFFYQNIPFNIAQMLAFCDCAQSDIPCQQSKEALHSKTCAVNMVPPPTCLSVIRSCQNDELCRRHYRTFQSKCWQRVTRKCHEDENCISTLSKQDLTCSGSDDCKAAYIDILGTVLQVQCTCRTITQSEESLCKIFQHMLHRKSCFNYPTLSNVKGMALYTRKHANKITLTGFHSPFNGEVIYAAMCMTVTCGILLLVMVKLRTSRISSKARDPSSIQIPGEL


Target: T1, human MIC-1 receptor (hGFRAL, GDNF …)
Assay: cell-based or functional assay

Binder	Emax (%)	pERK EC50 (nM)
AEEAES-MIC-1-Δ1-3 (ligand) AEEAESGDHCPLGPGRCCRLHTVRASLEDLGWADWVLSPREVQVTMCIGACPSQFRAANMHAQIKTSLHRLKPDTVPAPCCVPASYNPMVLIQKTDTGVSLQTYDDLLAKDCHCI	100	0.3
(AEE)2AES-MIC-1-Δ1-3 (ligand) AEEAEEAESGDHCPLGPGRCCRLHTVRASLEDLGWADWVLSPREVQVTMCIGACPSQFRAANMHAQIKTSLHRLKPDTVPAPCCVPASYNPMVLIQKTDTGVSLQTYDDLLAKDCHCI	100	0.4
(AEE)6AES-MIC-1 (ligand) AEEAEEAEEAEEAEEAEEAESGDHCPLGPGRCCRLHTVRASLEDLGWADWVLSPREVQVTMCIGACPSQFRAANMHAQIKTSLHRLKPDTVPAPCCVPASYNPMVLIQKTDTGVSLQTYDDLLAKDCHCI	100	0.8
(GEPS)5-MIC-1(SEQ ID NO: 1) (ligand) GEPSGEPSGEPSGEPSGEPSARNGDHCPLGPGRCCRLHTVRASLEDLGWADWVLSPREVQVTMCIGACPSQFRAANMHAQIKTSLHRLKPDTVPAPCCVPASYNPMVLIQKTDTGVSLQTYDDLLAKDCHCI	100	0.5
AASPAGSPTSTEEGTSESATPESGPG-MIC-1(SEQ ID NO: 1) (ligand) AASPAGSPTSTEEGTSESATPESGPGARNGDHCPLGPGRCCRLHTVRASLEDLGWADWVLSPREVQVTMCIGACPSQFRAANMHAQIKTSLHRLKPDTVPAPCCVPASYNPMVLIQKTDTGVSLQTYDDLLAKDCHCI	100	0.4
(AEE)5AES-MIC-1-Δ1-3 (ligand) AEEAEEAEEAEEAEEAESGDHCPLGPGRCCRLHTVRASLEDLGWADWVLSPREVQVTMCIGACPSQFRAANMHAQIKTSLHRLKPDTVPAPCCVPASYNPMVLIQKTDTGVSLQTYDDLLAKDCHCI	100	0.5
SPAGSPTSTEEGTSESATPESGPG-MIC-1(SEQ ID NO: 1) (ligand) SPAGSPTSTEEGTSESATPESGPGARNGDHCPLGPGRCCRLHTVRASLEDLGWADWVLSPREVQVTMCIGACPSQFRAANMHAQIKTSLHRLKPDTVPAPCCVPASYNPMVLIQKTDTGVSLQTYDDLLAKDCHCI	100	0.4
MIC-1(R2A,N3E,H18E) (ligand) AAEGDHCPLGPGRCCRLETVRASLEDLGWADWVLSPREVQVTMCIGACPSQFRAANMHAQIKTSLHRLKPDTVPAPCCVPASYNPMVLIQKTDTGVSLQTYDDLLAKDCHCI	100	0.5
MIC-1(R2A,N3E,R21E) (ligand) AAEGDHCPLGPGRCCRLHTVEASLEDLGWADWVLSPREVQVTMCIGACPSQFRAANMHAQIKTSLHRLKPDTVPAPCCVPASYNPMVLIQKTDTGVSLQTYDDLLAKDCHCI	100	0.6
MIC-1(R2A,N3E,A30E) (ligand) AAEGDHCPLGPGRCCRLHTVRASLEDLGWEDWVLSPREVQVTMCIGACPSQFRAANMHAQIKTSLHRLKPDTVPAPCCVPASYNPMVLIQKTDTGVSLQTYDDLLAKDCHCI	100	0.7
MIC-1(R2A,N3E,K107E) (ligand) AAEGDHCPLGPGRCCRLHTVRASLEDLGWADWVLSPREVQVTMCIGACPSQFRAANMHAQIKTSLHRLKPDTVPAPCCVPASYNPMVLIQKTDTGVSLQTYDDLLAEDCHCI	100	0.3
MIC-1(R2A,N3E,R67E) (ligand) AAEGDHCPLGPGRCCRLHTVRASLEDLGWADWVLSPREVQVTMCIGACPSQFRAANMHAQIKTSLHELKPDTVPAPCCVPASYNPMVLIQKTDTGVSLQTYDDLLAKDCHCI	100	0.5
MIC-1(R2A,N3E,L68E) (ligand) AAEGDHCPLGPGRCCRLHTVRASLEDLGWADWVLSPREVQVTMCIGACPSQFRAANMHAQIKTSLHREKPDTVPAPCCVPASYNPMVLIQKTDTGVSLQTYDDLLAKDCHCI	100	0.8
MIC-1(R2A,N3E,M57E) (ligand) AAEGDHCPLGPGRCCRLHTVRASLEDLGWADWVLSPREVQVTMCIGACPSQFRAANEHAQIKTSLHRLKPDTVPAPCCVPASYNPMVLIQKTDTGVSLQTYDDLLAKDCHCI	70	0.3
MIC-1(R2A, N3E) (ligand) AAEGDHCPLGPGRCCRLHTVRASLEDLGWADWVLSPREVQVTMCIGACPSQFRAANMHAQIKTSLHRLKPDTVPAPCCVPASYNPMVLIQKTDTGVSLQTYDDLLAKDCHCI	100	0.3
MIC-1(R2A,N3E,R53E) (ligand) AAEGDHCPLGPGRCCRLHTVRASLEDLGWADWVLSPREVQVTMCIGACPSQFEAANMHAQIKTSLHRLKPDTVPAPCCVPASYNPMVLIQKTDTGVSLQTYDDLLAKDCHCI	100	0.4
AES-MIC-1-Δ1-3 (ligand) AESGDHCPLGPGRCCRLHTVRASLEDLGWADWVLSPREVQVTMCIGACPSQFRAANMHAQIKTSLHRLKPDTVPAPCCVPASYNPMVLIQKTDTGVSLQTYDDLLAKDCHCI	100	0.3
MIC-1(R2A,N3E,L105E) (ligand) AAEGDHCPLGPGRCCRLHTVRASLEDLGWADWVLSPREVQVTMCIGACPSQFRAANMHAQIKTSLHRLKPDTVPAPCCVPASYNPMVLIQKTDTGVSLQTYDDLEAKDCHCI	100	0.7
MIC-1(R2A,N3E,K69E) (ligand) AAEGDHCPLGPGRCCRLHTVRASLEDLGWADWVLSPREVQVTMCIGACPSQFRAANMHAQIKTSLHRLEPDTVPAPCCVPASYNPMVLIQKTDTGVSLQTYDDLLAKDCHCI	100	0.5
MIC-1(R2A,N3E,P85E) (ligand) AAEGDHCPLGPGRCCRLHTVRASLEDLGWADWVLSPREVQVTMCIGACPSQFRAANMHAQIKTSLHRLKPDTVPAPCCVPASYNEMVLIQKTDTGVSLQTYDDLLAKDCHCI	100	0.6
MIC-1(R2A,N3E,P11E) (ligand) AAEGDHCPLGEGRCCRLHTVRASLEDLGWADWVLSPREVQVTMCIGACPSQFRAANMHAQIKTSLHRLKPDTVPAPCCVPASYNPMVLIQKTDTGVSLQTYDDLLAKDCHCI	100	0.4
MIC-1(R2A,N3E,A47E) (ligand) AAEGDHCPLGPGRCCRLHTVRASLEDLGWADWVLSPREVQVTMCIGECPSQFRAANMHAQIKTSLHRLKPDTVPAPCCVPASYNPMVLIQKTDTGVSLQTYDDLLAKDCHCI	100	0.4
(AEE)3AES-MIC-1-Δ1-3 (ligand) AEEAEEAEEAESGDHCPLGPGRCCRLHTVRASLEDLGWADWVLSPREVQVTMCIGACPSQFRAANMHAQIKTSLHRLKPDTVPAPCCVPASYNPMVLIQKTDTGVSLQTYDDLLAKDCHCI	100	0.5
